Substitutions are numbered along the chain they refer to. Read-outs that look alike come from different tables or passages of the source. Blank lines part the entries; values can stand above or below the binder they belong to.
How the values were obtained:
[1] = biological target: T1, Recombinant Human FGF-23 (R&D Systems, Cat No. 2604-FG-025/CF) (human, UniProt Q9GZV9 25-251); experiment: cell-based or functional assay
T1 sequence (looked up): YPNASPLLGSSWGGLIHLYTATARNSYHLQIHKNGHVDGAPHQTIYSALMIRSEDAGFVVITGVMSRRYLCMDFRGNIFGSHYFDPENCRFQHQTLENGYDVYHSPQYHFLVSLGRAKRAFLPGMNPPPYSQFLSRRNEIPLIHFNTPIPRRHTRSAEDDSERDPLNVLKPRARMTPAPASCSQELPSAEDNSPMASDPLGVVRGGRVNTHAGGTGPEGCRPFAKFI

[2] = biological target: T1, Recombinant Human FGF-23 (R&D Systems, …); experiment: SPR, antibody captured on Protein A chip, FGF-23 analyte
[3] = biological target: T2, human FcRn (human FcRn-His tag with human β2 microglobulin) (human, UniProt P55899 24-297; P61769 21-119); experiment: SPR pH 6, FcRn-His captured by anti-His, antibody analyte
T2 construct: also called h FcRn; hFcRn

[4] = biological target: T3, monkey FcRn (monkey FcRn-His tag with monkey β2 microglobulin) (cynomolgus monkey, UniProt Q8SPV9 24-297; Q8SPW0 21-119); experiment: as above
T3 construct: also called cyno FcRn; cynomolgus monkey FcRn extracellular domain His-tag body
T3 sequence (Q8SPV9 other isoform, or with tags, fused parts or gaps limits assumed, chain 1 of 2): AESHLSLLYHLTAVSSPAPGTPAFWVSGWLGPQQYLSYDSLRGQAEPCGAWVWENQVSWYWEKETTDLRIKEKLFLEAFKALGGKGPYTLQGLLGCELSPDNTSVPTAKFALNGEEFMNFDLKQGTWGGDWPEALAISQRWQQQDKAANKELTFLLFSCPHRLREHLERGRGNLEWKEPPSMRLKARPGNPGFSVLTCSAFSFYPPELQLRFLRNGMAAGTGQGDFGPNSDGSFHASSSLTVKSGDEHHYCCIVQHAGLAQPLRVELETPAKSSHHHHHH
T3 sequence (Q8SPW0 21-119 limits assumed, chain 2 of 2): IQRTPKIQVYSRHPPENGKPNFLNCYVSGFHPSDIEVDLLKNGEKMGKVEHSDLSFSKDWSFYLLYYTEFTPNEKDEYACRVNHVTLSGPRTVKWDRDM

[5] = biological target: T2, human FcRn (human FcRn-His tag with …); experiment: as above; remark: listed apart in the source
[6] = biological target: T1, Recombinant Human FGF-23 (R&D Systems, …); experiment: cell-based or functional assay; remark: listed apart in the source
[7] = biological target: T1, Recombinant Human FGF-23 (R&D Systems, …); experiment: SPR, antibody captured by anti-human IgG, FGF-23 analyte
[8] = biological target: T1, Recombinant Human FGF-23 (R&D Systems, …); experiment: as above; remark: listed apart in the source
[9] = biological target: T1, Recombinant Human FGF-23 (R&D Systems, …); experiment: as above; remark: listed apart in the source
[10] = biological target: T1, Recombinant Human FGF-23 (R&D Systems, …); experiment: as above; remark: listed apart in the source

B1: antibody A-1 (antibody, V domains shown)
VH: QVQLVQSGAEVKKPGASVKVSCKASGYTFTNHYMHWVRQAPGQGLEWMGLINPWHGTFSNAQKFQGRVTMTRDTSTSTVYMELSSLRSEDTAVYYCARDAVDAFDFWGQGTMVTVSS
VL: AIQLTQSPSSLSASVGDRVTITCRASQGISSALVWYQQKPGKAPKLLIYDASSLESGVPSRFSGSGSGTDFTLTISSLQPEDFATYYCQQFNDYFTFGPGTKVDIK
notes: VH J2H2B9_A; not shown: human kappa chain constant region
- FGF23 neutralizing activity IC50 (luciferase promoter assay) [1]: 3.5 ng/mL
- Kd [2]: 8.22 pM

B2: antibody A_IgG4PE_R409K (antibody)
heavy: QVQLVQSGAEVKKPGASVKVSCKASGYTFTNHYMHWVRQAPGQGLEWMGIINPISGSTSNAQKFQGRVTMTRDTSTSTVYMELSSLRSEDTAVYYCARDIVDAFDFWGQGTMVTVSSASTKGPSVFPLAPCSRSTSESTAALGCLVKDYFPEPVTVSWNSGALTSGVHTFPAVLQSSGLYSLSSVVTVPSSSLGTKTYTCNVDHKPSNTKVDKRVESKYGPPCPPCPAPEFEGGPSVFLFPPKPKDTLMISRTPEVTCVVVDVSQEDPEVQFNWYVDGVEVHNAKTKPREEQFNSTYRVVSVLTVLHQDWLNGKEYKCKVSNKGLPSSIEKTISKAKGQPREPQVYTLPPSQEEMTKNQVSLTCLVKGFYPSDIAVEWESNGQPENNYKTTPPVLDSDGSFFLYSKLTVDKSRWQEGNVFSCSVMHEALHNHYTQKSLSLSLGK
VL: B1 VL
notes: copies: 2 + 2
- Kd [3]: 912 nM
- Kd [4]: 324 nM

B4: antibody I100H (antibody, human IgG1, V domains shown)
VH: B1 VH with L50I, W54I, H55S, T57S, F58T, A100H
VL: B1 VL
notes: also called modified antibody I100
- FGF23 neutralizing activity IC50 (luciferase promoter assay) [6]: 8.9 ng/mL
- Kd [7]: 0.0672 nM

B5: antibody I100N (antibody, human IgG1, V domains shown)
VH: B1 VH with L50I, W54I, H55S, T57S, F58T, A100N
VL: B1 VL
notes: as for B4
- FGF23 neutralizing activity IC50 (luciferase promoter assay) [6]: 26.2 ng/mL
- Kd [7]: 0.0934 nM

B7: antibody I100A (antibody, human IgG1, V domains shown)
VH: B1 VH with L50I, W54I, H55S, T57S, F58T
VL: B1 VL
notes: as for B4
- FGF23 neutralizing activity IC50 (luciferase promoter assay) [6]: 5.1 ng/mL
- Kd [8]: 0.014 nM
- Kd [7]: 0.0251 nM
- Kd [9]: 0.0289 nM

B10: antibody I100L (antibody, human IgG1, V domains shown)
VH: B1 VH with L50I, W54I, H55S, T57S, F58T, A100L
VL: B1 VL
notes: as for B4
- Kd [8]: 0.0126 nM

B13: antibody A-5 (antibody, V domains shown)
VH: B1 VH with L50I, W54I, H55S, T57S, F58T
VL: B1 VL with G28D, I29V, S31T, V34L
notes: VL L1H8; not shown: human kappa chain constant region
- FGF23 neutralizing activity IC50 (luciferase promoter assay) [1]: 1.9 ng/mL
- Kd [2]: 3.61 pM

B16: antibody I100Y (antibody, human IgG1, V domains shown)
VH: B1 VH with L50I, W54I, H55S, T57S, F58T, A100Y
VL: B1 VL
notes: as for B4
- FGF23 neutralizing activity IC50 (luciferase promoter assay) [6]: 3 ng/mL
- Kd [7]: 0.0186 nM

B17: antibody A-8 (antibody, V domains shown)
VH: B1 VH with L50I, W54I, H55S, T57S, F58T, A100Y
VL: B1 VL with F91L, N92Y, Y94D, T96D
notes: VL 2L3H7; not shown: human kappa chain constant region
- FGF23 neutralizing activity IC50 (luciferase promoter assay) [1]: 2.4 ng/mL
- Kd [2]: 6.7 pM

B20: antibody I100R (antibody, human IgG1, V domains shown)
VH: B1 VH with L50I, W54I, H55S, T57S, F58T, A100R
VL: B1 VL
notes: as for B4
- FGF23 neutralizing activity IC50 (luciferase promoter assay) [6]: 82.5 ng/mL
- Kd [7]: 0.222 nM

B21: antibody D105A (antibody, human IgG1, V domains shown)
VH: B1 VH with L50I, W54I, H55S, T57S, F58T, A100I, D105A
VL: B1 VL
notes: also called modified antibody D105
- FGF23 neutralizing activity IC50 (luciferase promoter assay) [6]: > 100 ng/mL
- Kd [10]: 0.108 nM

B22: antibody D105T (antibody, human IgG1, V domains shown)
VH: B1 VH with L50I, W54I, H55S, T57S, F58T, A100I, D105T
VL: B1 VL
notes: as for B21
- FGF23 neutralizing activity IC50 (luciferase promoter assay) [6]: > 100 ng/mL
- Kd [10]: 0.111 nM

B24: antibody I100V (antibody, human IgG1, V domains shown)
VH: B1 VH with L50I, W54I, H55S, T57S, F58T, A100V
VL: B1 VL
notes: as for B4
- Kd [8]: 0.00473 nM

B25: antibody A_IgG4PE_R409K_QL (antibody)
chain 1: QVQLVQSGAEVKKPGASVKVSCKASGYTFTNHYMHWVRQAPGQGLEWMGIINPISGSTSNAQKFQGRVTMTRDTSTSTVYMELSSLRSEDTAVYYCARDIVDAFDFWGQGTMVTVSSASTKGPSVFPLAPCSRSTSESTAALGCLVKDYFPEPVTVSWNSGALTSGVHTFPAVLQSSGLYSLSSVVTVPSSSLGTKTYTCNVDHKPSNTKVDKRVESKYGPPCPPCPAPEFEGGPSVFLFPPKPKDQLMISRTPEVTCVVVDVSQEDPEVQFNWYVDGVEVHNAKTKPREEQFNSTYRVVSVLTVLHQDWLNGKEYKCKVSNKGLPSSIEKTISKAKGQPREPQVYTLPPSQEEMTKNQVSLTCLVKGFYPSDIAVEWESNGQPENNYKTTPPVLDSDGSFFLYSKLTVDKSRWQEGNVFSCSVLHEALHNHYTQKSLSLSLGK
chain 2: not shown
- Kd [3]: 265 nM
- Kd [4]: 87 nM

Second part, the binder after the results:

- Kd [5]: 310 nM
B3: antibody A_G2_LS (antibody)
heavy: QVQLVQSGAEVKKPGASVKVSCKASGYTFTNHYMHWVRQAPGQGLEWMGIINPISGSTSNAQKFQGRVTMTRDTSTSTVYMELSSLRSEDTAVYYCARDIVDAFDFWGQGTMVTVSSASTKGPSVFPLAPCSRSTSESTAALGCLVKDYFPEPVTVSWNSGALTSGVHTFPAVLQSSGLYSLSSVVTVPSSNFGTQTYTCNVDHKPSNTKVDKTVERKCCVECPPCPAPPVAGPSVFLFPPKPKDTLMISRTPEVTCVVVDVSHEDPEVQFNWYVDGVEVHNAKTKPREEQFNSTFRVVSVLTVVHQDWLNGKEYKCKVSNKGLPAPIEKTISKTKGQPREPQVYTLPPSREEMTKNQVSLTCLVKGFYPSDIAVEWESNGQPENNYKTTPPMLDSDGSFFLYSKLTVDKSRWQQGNVFSCSVLHEALHSHYTQKSLSLSPGK
light: B1 VL
notes: not shown: human kappa chain constant region; copies: 2 + 2

- Kd [5]: 142 nM
B6: antibody A_LS (antibody, human IgG1, name in EU numbering)
heavy: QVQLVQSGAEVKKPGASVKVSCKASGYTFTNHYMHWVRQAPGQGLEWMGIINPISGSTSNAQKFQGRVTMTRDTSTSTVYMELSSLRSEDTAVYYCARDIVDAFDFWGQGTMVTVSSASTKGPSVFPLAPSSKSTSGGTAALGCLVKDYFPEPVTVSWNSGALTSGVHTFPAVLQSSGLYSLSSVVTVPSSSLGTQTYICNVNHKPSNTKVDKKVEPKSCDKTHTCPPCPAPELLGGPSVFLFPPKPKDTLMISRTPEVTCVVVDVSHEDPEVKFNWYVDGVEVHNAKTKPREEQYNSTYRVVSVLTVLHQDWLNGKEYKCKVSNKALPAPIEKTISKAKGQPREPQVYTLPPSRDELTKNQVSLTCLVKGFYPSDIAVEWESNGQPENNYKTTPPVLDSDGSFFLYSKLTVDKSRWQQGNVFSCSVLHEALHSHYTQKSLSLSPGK
light: B1 VL
notes: positions are EU index; not shown: human kappa chain constant region; copies: 2 + 2

- Kd [3]: 227 nM
- Kd [4]: 123 nM
B8: antibody A_IgG4PE_R409K_YTE (antibody)
heavy: B25 chain 1 with Q247T, M249Y, S251T, T253E, L425M
VL: B1 VL
notes: copies: 2 + 2

- FGF23 neutralizing activity IC50 (luciferase promoter assay) [1]: 3.2 ng/mL
- Kd [2]: 16.1 pM
B9: antibody A-7 (antibody, V domains shown)
VH: B1 VH with L50I, W54I, H55S, T57S, F58T
VL: B1 VL with F91L, N92Y, Y94D, T96D
notes: as for B17

- Kd [3]: 192 nM
- Kd [4]: 76.9 nM
B11: antibody A_IgG4PE_R409K_P (antibody)
heavy: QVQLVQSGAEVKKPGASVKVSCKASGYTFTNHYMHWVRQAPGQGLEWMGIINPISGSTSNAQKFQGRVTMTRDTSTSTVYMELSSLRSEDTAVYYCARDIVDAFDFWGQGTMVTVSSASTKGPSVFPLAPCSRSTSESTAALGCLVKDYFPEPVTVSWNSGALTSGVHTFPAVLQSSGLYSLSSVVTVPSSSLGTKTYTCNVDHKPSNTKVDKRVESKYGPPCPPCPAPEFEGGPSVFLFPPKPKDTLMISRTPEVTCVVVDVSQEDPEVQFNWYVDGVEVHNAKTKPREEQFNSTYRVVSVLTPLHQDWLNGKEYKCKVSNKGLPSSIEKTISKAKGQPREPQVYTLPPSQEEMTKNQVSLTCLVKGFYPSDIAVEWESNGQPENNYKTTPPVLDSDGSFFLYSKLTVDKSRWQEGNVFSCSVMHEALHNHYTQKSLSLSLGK
light: B1 VL
notes: as for B3

- FGF23 neutralizing activity IC50 (luciferase promoter assay) [1]: 1.9 ng/mL
- Kd [2]: 8.74 pM
B12: antibody A-4 (antibody, V domains shown)
VH: B1 VH with L50I, W54I, H55S, T57S, F58T, A100Y
VL: B1 VL with F91M, N92Y, Y94D, T96N
notes: VL L3G12; not shown: human kappa chain constant region

- FGF23 neutralizing activity IC50 (luciferase promoter assay) [6]: > 100 ng/mL
- Kd [7]: 0.219 nM
B14: antibody I100D (antibody, human IgG1, V domains shown)
VH: B1 VH with L50I, W54I, H55S, T57S, F58T, A100D
VL: B1 VL
notes: as for B4

- FGF23 neutralizing activity IC50 (luciferase promoter assay) [1]: 3.6 ng/mL
- Kd [2]: 11.3 pM
B15: antibody A-6 (antibody, V domains shown)
VH: B1 VH with L50I, W54I, H55S, T57S, F58T, A100Y
VL: B1 VL with G28D, I29V, S31T, V34L
notes: as for B13

- FGF23 neutralizing activity IC50 (luciferase promoter assay) [1]: 3.4 ng/mL
- Kd [2]: 8.08 pM
B18: antibody A-2 (antibody, V domains shown)
VH: B1 VH with A100Y
VL: B1 VL
notes: VH J2H2B9_Y; not shown: human kappa chain constant region

- FGF23 neutralizing activity IC50 (luciferase promoter assay) [1]: 2.7 ng/mL
- Kd [2]: 8.27 pM
B19: antibody A-3 (antibody, V domains shown)
VH: B1 VH with L50I, W54I, H55S, T57S, F58T
VL: B1 VL with F91M, N92Y, Y94D, T96N
notes: as for B12

- FGF23 neutralizing activity IC50 (luciferase promoter assay) [6]: > 100 ng/mL
- Kd [7]: 0.149 nM
B23: antibody I100G (antibody, human IgG1, V domains shown)
VH: B1 VH with L50I, W54I, H55S, T57S, F58T, A100G
VL: B1 VL
notes: as for B4
